Assay results: article PMC8392704, “Small Hexokinase 1 Peptide against Toxic SOD1 G93A Mitochondrial Accumulation in ALS Rescues the ATP-Related Respiration” (Biomedicines, 2021)
Primed or numbered codes have the meaning given here. Where no end group is shown, it is not given here. FITC′ = not defined here

Molecular target: T1, Recombinant 6xHis-tagged human VDAC1 (Voltage-Dependent Anion Channel 1) (human, UniProt P21796 1-283)
T1 construct: Voltage-Dependent Anion selective Channel 1 (VDAC1), human; PDB 6G6U is the cited crystal structure of human VDAC1, used only for docking; also called mitochondrial porin; porin; not shown: His6, C-terminal, kept
T1 sequence (P21796 whole entry): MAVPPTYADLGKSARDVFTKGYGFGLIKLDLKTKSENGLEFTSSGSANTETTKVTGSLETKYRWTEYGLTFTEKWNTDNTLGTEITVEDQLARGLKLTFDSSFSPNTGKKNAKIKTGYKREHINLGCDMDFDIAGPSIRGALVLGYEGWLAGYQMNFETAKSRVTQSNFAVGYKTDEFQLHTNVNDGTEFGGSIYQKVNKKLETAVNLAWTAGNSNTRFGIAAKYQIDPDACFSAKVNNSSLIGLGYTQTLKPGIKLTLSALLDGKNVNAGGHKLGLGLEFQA
Test: pull-down + SEC; 1 uM C-terminal His-tagged VDAC1 immobilised on Ni2+-Sepharose beads, incubated with 1 uM NHK1-FITC for 24 h; unbound peptide washed off; eluted with 200 mM imidazole; eluate loaded on Superdex200 and the complex detected by FSEC (ex/em 494/518 nm), with the VDAC1 profile at 280 nm
Settings: both partners purified

B1: NHK1-FITC peptide (FITC-labeled NHK1, residues 2-12 of human HK1) (peptide)
peptide: IAAQLLAYYFT-{FITC′}
notes: hexokinase 1 (HK1), human, amino acids 2-12; also called FITC-NHK1; NHKI; source: synthetic peptide, produced by Proteogenix
B1: binds.
